Assay results: patent US20240343803A1 (SHANDONG SIMCERE BIOPHARMACEUTICAL, published 2024)
Substitutions are numbered along the chain they refer to. Values belong to the binder of their own block, whether it stands above or below them.

Legend:
[1] = biological target: T1, full-length human TIGIT on CHO-K1 cells (CHO-K1 human TIGIT) (human, UniProt Q495A1 22-244); experiment: FACS, competition: Bio-CD155-His to CHO-K1 human TIGIT
T1 construct: NCBI XP_024309156.1; entry includes the signal peptide; also called high expression strain 1D2; medium expression strain 2D10
T1 sequence: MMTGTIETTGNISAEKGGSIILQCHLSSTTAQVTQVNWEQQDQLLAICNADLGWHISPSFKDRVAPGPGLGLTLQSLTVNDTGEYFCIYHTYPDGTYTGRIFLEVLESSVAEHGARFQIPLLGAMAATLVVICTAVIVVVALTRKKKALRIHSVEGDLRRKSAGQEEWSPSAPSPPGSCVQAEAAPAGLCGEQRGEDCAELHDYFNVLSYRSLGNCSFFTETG
Protocol: The collected cells were washed once with PBS (Hyclone, CAT #SH30256), resuspended to 2×10⁵/40 μL with 1% BSA-PBS. The antibodies were diluted to 210 nM with 1% BSA-PBS (diluted by 3-fold serial dilution for 12 concentration points). […] The 40 μL cells were then mixed with 40 μL diluted antibodies and 40 μL diluted Bio-CD155-His, and then incubated at 4° C. for 60 minutes. The cells were washed twice with PBS, resuspended with APC labeled streptavidin (dilution ratio 1:1700, Biolegend, 405243), 100 μL/well, and incubated at 4° C. for 40 minutes. The cell samples were washed twice with PBS, resuspended with 1% BSA-PBS, 100 μL/well and then analyzed by flow cytometry (BD, Canto II). […] (d) The effect of anti-TIGIT mouse monoclonal antibodies blocking the interaction between human TIGIT and CHO-K1 CD155 detected by ELISA

[2] = biological target: T1, full-length human TIGIT on CHO-K1 cells …; experiment: cell ELISA, high expression strain
Protocol: (§1) After discarding the culture supernatant, the cells were fixed with a cell fixation solution (Beyotime, CAT #P0098), 50 μL/well, at room temperature for 1 hour. After washing once with 0.05% Tween 20-PBS on the Microplate Washer, the plate was added with 5% skim milk powder-PBS, 250 μL/well, and incubated at 37° C. for 2-4 hours. After washing 3 times with 0.05% Tween 20-PBS on the Microplate Washer, the plate was added with purified mouse monoclonal antibodies (diluted to 13 nM with 1% BSA, diluted by 3 fold serial dilution for 12 concentration points), 50 µL/well, incubated at 37° C. for 1.5-2 hours. […] After washing 3 times with 0.05% Tween 20-PBS on the Microplate Washer, the plate was added with TMB chromogenic solution (KPL, CAT #52-00-03), 50 μL/well, and incubated at 37° C. for 10 minutes. 1M HCL, 50 μL/well, was then added into the plate to terminate the reaction, and the OD450 nm was read by a microplate reader (Biotek, Powerwave HT). […] (c) The effect of anti-TIGIT mouse monoclonal antibodies blocking the interaction between Bio-CD155-His and CHO-K1 human TIGIT detected by FACS

[3] = biological target: T1, full-length human TIGIT on CHO-K1 cells …; experiment: cell ELISA, medium expression strain
Protocol: as §1

[4] = biological target: T1, full-length human TIGIT on CHO-K1 cells …; experiment: cell ELISA, low expression strain
Protocol: as §1

[5] = biological target: T2, human TIGIT ECD-hFc (fusion protein of extracellular domain of human TIGIT and human IgG1 Fc fragment) (human); experiment: cell ELISA, competition: hTIGIT ECD-hFc to CHO-K1 CD155
T2 construct: entry includes the signal peptide, limits not readable here
Protocol: After discarding the culture supernatant, the cells were fixed with a cell fixation solution (Beyotime, CAT #P0098), 50 μL/well, at room temperature for 1 hour. After washing once with 0.05% Tween 20-PBS on the Microplate Washer, the plate was added with 5% skim milk powder-PBS, 250 μL/well, and incubated at 37° C. for 2-4 hours. The plate was then washed 3 times with 0.05% Tween 20-PBS on the Microplate Washer. The mouse monoclonal antibodies were mixed with human TIGIT ECD-hFc (working concentration: 30 ng/mL) and incubated for 0.5 hour. The mixed solution of antigen and antibody was added to the cell plate (50 μL/well). The cells were incubated at 37° C. for 1.5-2 hours and then washed with 0.05% Tween 20-PBS for 3 times on the Microplate Washer. The cell plate was then added with 50 μL/well HRP enzyme-labeled antibodies (Merck, CAT #AP113P) diluted with 1% BSA (Sangon Biotech, CAT #A500023-0100)-PBS at a dilution ratio of 1:5000 and incubated at 37° C. for 1 hour. After washing 3 times with 0.05% Tween 20-PBS on the Microplate Washer, the plate was added with TMB chromogenic solution (KPL, CAT #52-00-03), 50 μL/well, and incubated at 37° C. for 10 minutes. 1M HCL, 50 μL/well, was then added into the plate to terminate the reaction, and the OD450 nm was read by a microplate reader (Biotek, Powerwave HT).

[6] = biological target: T2, human TIGIT ECD-hFc (fusion protein of …); experiment: ELISA
[7] = biological target: T3, cynomolgus monkey TIGIT ECD-hFc (extracellular domain of cynomolgus monkey TIGIT and human IgG1 Fc fragment) (cynomolgus monkey); experiment: ELISA
T3 construct: entry includes the signal peptide, limits not readable here; also called cynomolgus monkey TIGIT-hFc

[8] = biological target: T4, full-length cynomolgus monkey TIGIT on CHO-K1 cells (CHO-K1 cynomolgus monkey TIGIT) (cynomolgus monkey); experiment: cell ELISA
T4 construct: NCBI XP_015300911.1; also called cynomolgus monkey TIGIT cells
Protocol: as §1

[9] = biological target: T5, human TIGIT ECD-his (fusion protein of extracellular domain of human TIGIT and His-tag) (human); experiment: BIAcore kinetics
T5 construct: entry includes the signal peptide, limits not readable here
T5 chain: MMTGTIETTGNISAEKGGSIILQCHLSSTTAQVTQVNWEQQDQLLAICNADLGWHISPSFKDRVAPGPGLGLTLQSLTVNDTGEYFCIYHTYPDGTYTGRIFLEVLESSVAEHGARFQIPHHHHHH

IC50 [1]: 0.449 nM
EC50 [2]: 1.05 nM
EC50 [3]: 0.984 nM
EC50 [4]: 0.672 nM
IC50 [5]: 0.212 nM
EC50 [6]: 0.0108 nM
EC50 [7]: 0.0152 nM
EC50 [8]: 0.0791 nM
Kd [9]: 0.211 nM
koff [9]: 0.000141 s⁻¹
kon [9]: 669000 M⁻¹ s⁻¹
B1: RG6058-mIgG2a (antibody, V domains shown)
VH: EVQLQQSGPGLVKPSQTLSLTCAISGDSVSSNSAAWNWIRQSPSRGLEWLGKTYYRFKWYSDYAVSVKGRITINPDTSKNQFSLQLNSVTPEDTAVFYCTRESTTYDLLAGPFDYWGQGTLVTVSS
VL: not shown
notes: mouse IgG2a format by its name; also called Roche RG6058; control antibody RG6058

IC50 [1]: 0.34 nM
EC50 [2]: 0.613 nM
EC50 [3]: 0.664 nM
EC50 [4]: 0.375 nM
IC50 [5]: 0.136 nM
EC50 [6]: 0.0039 nM
EC50 [7]: 0.0043 nM
EC50 [8]: 0.0274 nM
Kd [9]: 0.155 nM
koff [9]: 0.000117 s⁻¹
kon [9]: 755000 M⁻¹ s⁻¹
B2: TIGIT-F5-070 (antibody, V domains shown)
VH: QVQLQQPGTELVKPGASVKLSCRASGYTFTNYYMHWVKQRPGRGLEWIGRIDPDSGGSKYNEKFKSKATLTVDKLSSTAYMQLSSLTSEDSAVYYCAREGHYGFYSDYWGQGTTLTVSS
VL: DIQMTQSPASLSASVGETVTITCRVSENIYSYLAWYQQKQGKSPQLLVYNAKTLAEGVPSRFSGSGSGTQFSLKINSLQPEDFGNYYCQHHYGNPLTFGAGTKLDLK
notes: mouse hybridoma antibody; variable domains as printed for TIGIT-CHI-070; tie rests on the number 070 only; also called mouse antibody TIGIT-070

IC50 [1]: 0.174 nM
EC50 [2]: 0.388 nM
EC50 [3]: 0.386 nM
EC50 [4]: 0.231 nM
IC50 [5]: 0.133 nM
EC50 [6]: 0.015 nM
EC50 [7]: 0.0147 nM
EC50 [8]: 0.0778 nM
Kd [9]: 0.0333 nM
koff [9]: 4.47e-05 s⁻¹
kon [9]: 1.34e+06 M⁻¹ s⁻¹
B3: TIGIT-F2-005 (antibody, V domains shown)
VH: QVQLQQSGAELVRPGTSVKVSCKASGYAFTNYLIEWVKQRPGQGLEWIGVINPGSGGTNYKEKFKGKATLTADKSSSTAYMQLSSLTSEDSAVYFCARGEYFFFDYWGQGTTLTVSS
VL: DIVMTQSHKFMSTSVGDRVSITCKASQHVSNGVAWYQHKPGQSPKLLIYSASYRYTGVPDRFTGTGSGTDFTFTISSVQAEDLAVYYCQQHYNTPHTFGGGTKLEIK
notes: mouse hybridoma antibody; variable domains as printed for TIGIT-CHI-005; tie rests on the number 005 only; also called mouse antibody TIGIT-005

IC50 [1]: 0.204 nM
EC50 [2]: 0.312 nM
EC50 [3]: 0.316 nM
EC50 [4]: 0.273 nM
IC50 [5]: 0.141 nM
EC50 [6]: 0.0171 nM
EC50 [7]: 0.017 nM
EC50 [8]: 0.11 nM
Kd [9]: 0.0476 nM
koff [9]: 8.08e-05 s⁻¹
kon [9]: 1.7e+06 M⁻¹ s⁻¹
B4: TIGIT-F2-002 (antibody, V domains shown)
VH: EVQLQESGPGLAKPSQTLSLACSVTGYSITSDSWNWIRKFPGNKLEYMGYISYSGNTYYNPSLKSRISITRDTSKNQFYLQLNSVTTEDTATYYCARLDFSNYGGAVDYWGQGTSVTVSS
VL: DIVMTQSHTFMSTSVGDRVSITCKASQNVRTAVAWYQQKPGQSPKLMIYSASYRYTGVPDRFTGSGSGTDFTFTISSVQAEDLAVYYCQQYYTTPWTFGGGAKLEIQ
notes: mouse hybridoma antibody; variable domains are those printed for the chimeric TIGIT-CHI-002 built from the mouse antibody; tie rests on the number 002 only; also called mouse antibody TIGIT-002

IC50 [1]: 0.215 nM
EC50 [2]: 0.48 nM
EC50 [3]: 0.54 nM
EC50 [4]: 0.32 nM
IC50 [5]: 0.15 nM
EC50 [6]: 0.0208 nM
EC50 [7]: 0.0327 nM
EC50 [8]: 0.0616 nM
Kd [9]: 0.0414 nM
koff [9]: 3.32e-05 s⁻¹
kon [9]: 800000 M⁻¹ s⁻¹
B5: TIGIT-F2-006 (antibody, V domains shown)
VH: B4 VH with L18P, A21T, I29M, S33Y, N56R, L98G, F100Y, V107M, D108Y, Y109D
VL: DIVMTQSHKFMSTSVGDRVSITCRASQGVSTTIAWYQQKPGQSPKLLIYSASYRYTGVPDRFTGSGSGTDFTFTISGVQAEDLAVYYCQQYYSSPFTFGGGTKLEIK
notes: mouse hybridoma antibody; variable domains as printed for TIGIT-CHI-006; tie rests on the number 006 only; also called mouse antibody TIGIT-006
